In patent US20230250177A1 (INTERVET, published 2023):
Each block holds one molecule with its values, some of them ahead of it.

What was measured:
[1] = target: biotinylated canine IL-31 (canine); assay: ELISA: IL-31RA coated at 10 µg/mL, biotinylated IL-31 titrated 3-fold from 10 µg/mL, HRP-streptavidin
[2] = target: T1, canine IL-22 with a C-terminal HIS tag (canine); assay: ELISA: cIL-22-His coated at 1 µg/mL, Fezakinumab titrated from 5 µg/mL, anti-human IgG Fc-HRP
T1 construct: Recombinant, made in HEK-293 or CHO cells; coated on the ELISA plate; also called cIL-22-His; canine IL-22-HIS
T1 chain: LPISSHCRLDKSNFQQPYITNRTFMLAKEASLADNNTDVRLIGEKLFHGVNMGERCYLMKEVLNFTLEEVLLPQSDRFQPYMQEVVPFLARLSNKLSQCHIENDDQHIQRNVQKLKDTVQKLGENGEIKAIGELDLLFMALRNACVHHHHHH
Description: The binding of canine IL-22 HIS to the anti-IL-22 antibody Fezakinumab was determined by ELISA as follows: […]

EC50 [1]: 0.368 µg/mL
Molecule: Canine IL-31RA ECD-10His (extracellular domain of canine IL-31 receptor alpha fused to a HIS tag)

binding result [2]: binds
B1: Fezakinumab (human monoclonal anti-IL-22 antibody) (antibody, human IgG1, lambda, V domains shown)
VH: QVQLVQSGAEVKKPGASVKVSCKASGYTFTNYYMHWVRQAPGQGLEWVGWINPYTGSAFYAQKFRGRVTMTRDTSISTAYMELSRLRSDDTAVYYCAREPEKFDSDDSDVWGRGTLVTVSS
VL: QAVLTQPPSVSGAPGQRVTISCTGSSSNIGAGYGVHWYQQLPGTAPKLLIYGDSNRPSGVPDRFSGSKSGTSASLAITGLQAEDEADYYCQSYDNSLSGYVFGGGTQLTVLG
notes: Full human heavy and light chains, marked PRIOR ART; made recombinantly in HEK-293 or CHO cells; also called Fezakinumab-mAb; Feza-mAb
